Target: transgenic TCR specific for A*02:01/pp65495-503, on transduced PBMCs
Assay: cell-based or functional assay

Substance	Ag-specific CD8 T cell population after 5d culture with 0.25 ug pMHC [%]	Ag-specific CD8 T cell population after 5d culture with 0.5 ug pMHC [%]
un-functionalized A2/pp65495-503 pMHC (Tub-tagged Streptamer) (from UniProt P61769 21-119; P06725 495-503) (peptide-MHC)	64.5	20 to 43.7
A1/pp65(363-373) pMHC functionalized with MMAF (irrelevant toxin armed Streptamer) (from UniProt P61769 21-119; P06725 363-373) (peptide-MHC)	60.7	

Reference: US20210246189A1
